Experiments:
[1] = biological target: CCR5 (human (endogenous in SNU387, PLC/PRF-5, SK-HEP-1)) (UniProt P51681)
[2] = biological target: CCR5 (human (endogenous in SNU387, PLC/PRF-5, SK-HEP-1)) (UniProt P51681); remark: listed apart in the source

UniProt P51681, sequence (P51681 whole entry): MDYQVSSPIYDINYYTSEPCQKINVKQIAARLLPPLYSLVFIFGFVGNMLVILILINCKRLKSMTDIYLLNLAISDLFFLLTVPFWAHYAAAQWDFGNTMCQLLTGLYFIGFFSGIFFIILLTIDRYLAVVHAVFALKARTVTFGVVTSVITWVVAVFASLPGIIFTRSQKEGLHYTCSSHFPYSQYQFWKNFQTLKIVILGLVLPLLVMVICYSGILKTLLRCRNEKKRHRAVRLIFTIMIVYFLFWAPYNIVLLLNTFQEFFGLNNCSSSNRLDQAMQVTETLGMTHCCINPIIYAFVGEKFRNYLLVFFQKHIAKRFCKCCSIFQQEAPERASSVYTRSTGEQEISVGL

Akt-1 mRNA (qRT-PCR) in PLC/PRF-5 cells treated with CCL5; diminished by maraviroc [1]: 1.3 fold
Akt-1 mRNA (qRT-PCR) in SK-HEP-1 cells treated with CCL5; diminished by maraviroc [1]: 1.2 fold
E-cadherin mRNA (qRT-PCR) in PLC/PRF-5 cells after exposure to maraviroc, compared to CCL5-treated cells [1]: 0.3 fold
E-cadherin mRNA (qRT-PCR) in SK-HEP-1 cells after exposure to maraviroc, compared to CCL5-treated cells [1]: 0.8 fold
beta-catenin mRNA (qRT-PCR) in PLC/PRF-5 cells treated with CCL5; diminished by maraviroc [1]: 1.7 fold
beta-catenin mRNA (qRT-PCR) in SK-HEP-1 cells treated with CCL5; diminished by maraviroc [1]: 1.3 fold
caspase-3 mRNA (qRT-PCR) in HCC cells: down-regulated with CCL5, higher with CCL5 plus maraviroc in two of the three cell lines [2]: 0.5 fold
Substance: CCL5 recombinant protein (from UniProt P13501 24-91) (ligand)
